The text below walks through data of paper PMC7193532 (Acta Crystallographica. Section D, Structural Biology, 2020).

What all share (experiment): SPR
For orientation: Surface plasmon resonance follows binding to a sensor surface in real time, without labels.

The target of one test is rufomycin I (RUF-I). Conditions: read off a plot.
In a further test the target is ohmyungsamycin A (OMS-A). The following applies: read off a plot.
The next test deals with ecumicin (ECU). The following applies: read off a plot.
Test [1] deals with ClpC1-NTD MAFER (Mycobacterium tuberculosis) (UniProt P9WPC9).
The target of test [2] is ClpC1-FL mutant V14A (Mycobacterium tuberculosis) (UniProt P9WPC9).
Test [3] deals with ClpC1-FL mutant Q17A (Mycobacterium tuberculosis) (UniProt P9WPC9).
The target in test [4] is ClpC1-NTD N-terminal mutant FER (residues 2-145) (Mycobacterium tuberculosis) (UniProt P9WPC9).
For test [5], the target named is ClpC1-FL mutant K85A (Mycobacterium tuberculosis) (UniProt P9WPC9).
Test [6] deals with ClpC1-NTD N-terminal mutant MVFER (Mycobacterium tuberculosis) (UniProt P9WPC9).
Test [7] has as its target ClpC1-FL mutant L92S/L96P (Mycobacterium tuberculosis) (UniProt P9WPC9).

In the case of “ClpC1-NTD (SPR construct, His6-SUMO tag cleaved) (from UniProt P9WPC9) AAFER (Met1Ala mutation and Ala insertion)”, the results for the Kd in the test with rufomycin I (RUF-I) (parent: est. 68 nM), in the test with ohmyungsamycin A (OMS-A) (parent: est. 400 nM) and with ecumicin (ECU) (parent: est. 51 nM) were 1200 nM, 9200 nM and 3300 nM, respectively.
“ClpC1-NTD (SPR construct, His6-SUMO tag cleaved) (from UniProt P9WPC9) M1del (FER)”: the Kd in the test with rufomycin I (RUF-I) (parent: est. 68 nM) was 360 nM; in the test with ohmyungsamycin A (OMS-A) (parent: est. 400 nM) it was 4900 nM.
For the substance “ClpC1-NTD (SPR construct, His6-SUMO tag cleaved) (from UniProt P9WPC9) MAF (MAFER: Ala inserted before Phe2)”, the Kd was 9600 nM with ohmyungsamycin A (OMS-A) (parent: est. 400 nM) and 3800 nM with ecumicin (ECU) (parent: est. 51 nM).
For “ClpC1-NTD (SPR construct, His6-SUMO tag cleaved) (from UniProt P9WPC9) MVAFER (ValAla inserted before Phe2)”, in the test with rufomycin I (RUF-I) (parent: est. 68 nM), the Kd is 900 nM.
“ClpC1-NTD (SPR construct, His6-SUMO tag cleaved) (from UniProt P9WPC9) MVFER (Val inserted before Phe2)”: the Kd with ecumicin (ECU) (parent: est. 51 nM) was 4100 nM.
In test [1], ecumicin (peptide) showed a Kd of 3500 nM.
Consider “full-length ClpC1 (ClpC1-FL) (from UniProt P9WPC9) K85A”, for which the Kd was determined as 420 nM in the test with rufomycin I (RUF-I) (parent: est. 87 nM), 1600 nM in the test with ohmyungsamycin A (OMS-A) (parent: est. 350 nM) and 580 nM in the test with ecumicin (ECU) (parent: est. 68 nM).
As to “full-length ClpC1 (ClpC1-FL) (from UniProt P9WPC9) L92S; L96P”, in the test with rufomycin I (RUF-I) (parent: est. 87 nM), the Kd came to 260 nM.
In the case of “full-length ClpC1 (ClpC1-FL) (from UniProt P9WPC9) Q17A”, the results for the Kd with rufomycin I (RUF-I) (parent: est. 87 nM) and with ohmyungsamycin A (OMS-A) (parent: est. 350 nM) were 1400 nM and 1300 nM, respectively.
The corresponding values for “full-length ClpC1 (ClpC1-FL) (from UniProt P9WPC9) V14A” are 630 nM and 1600 nM.
On to rufomycin I (RUF-I) (peptide), for which the fold reduction in binding affinity against wild type in test [2] turned out to be 8 fold; in test [5], 5 fold; in test [6] it was 6 fold; in test [7], 3 fold. Also, the fold reduction in binding against wild type in test [3] came to 17 fold; in [4], 5 fold.

What is called Kd is the free concentration of one partner at which half of the binding sites on the other are occupied at equilibrium, for simple one-to-one binding.
